According to US9555344:

Columns and labels:
Concanavalin A [1] = target: Concanavalin A (UniProt P02866); assay: Con A Sepharose affinity chromatography (Con A assay); bound albumin as percent of load
Concanavalin A [2] = target: Concanavalin A (UniProt P02866); assay: Con A Sepharose affinity chromatography, 100 mg rHA loaded; albumin monomer in eluate by GP-HPLC as percent of load; sample SP-FF2 flow through & washings
Concanavalin A [3] = target: Concanavalin A (UniProt P02866); assay: Con A Sepharose affinity chromatography, 100 mg rHA loaded; albumin monomer in eluate by GP-HPLC as percent of load; sample PBA flow through & washings
Concanavalin A [4] = target: Concanavalin A (UniProt P02866); assay: Con A Sepharose affinity chromatography, 100 mg rHA loaded; albumin monomer in eluate by GP-HPLC as percent of load; sample final product

Substance | content of Con A binding material (Concanavalin A [1]) | ConA-binding rHA (% of load) (Concanavalin A [2]) | ConA-binding rHA (% of load) (Concanavalin A [3]) | ConA-binding rHA (% of load) (Concanavalin A [4])
rHA purified from the Pichia pastoris culture medium in accordance with the process of Example 1 (from UniProt P02768 25-609) | 0.22 % (w/w) |  |  | 
rHA used to spike the Pichia culture medium (from UniProt P02768 25-609) | 0.57 % (w/w) |  |  | 
recombinant human albumin (rHA) from a non-mutant (non-pmt1) Saccharomyces cerevisiae strain, purified by the process of Example 1 (from UniProt P02768 25-609) |  | 0.32 % of load | 0.55 % of load | 0.28 % of load
